Laboratory results reported in the DeepSol protein solubility set.

assay: soluble on expression in E. coli; label from the status in PepcDB or PDB records

| Sequence | soluble on expression in E. coli |
| --- | --- |
| MMVLRMKVEWYLDFVDLNYEPGRDELIVEYYFEPNGVSPEEAAGRIASESSIGTWTTLWKLPEMAKRSMAKVFYLEKHGEGYIAKIAYPLTLFEEGSLVQLFSAVAGNVFGMKALKNLRLLDFHPPYEYLRHFKGPQFGVQGIREFMGVKDRPLTATVPKPKMGWSVEEYAEIAYELWSGGIDLLKDDENFTSFPFNRFEERVRKLYRVRDRVEAETGETKEYLINITGPVNIMEKRAEMVANEGGQYVMIDIVVAGWSALQYMREVTEDLGLAIHAHRAMHAAFTRNPRHGITMLALAKAARMIGVDQIHTGTAVGKMAGNYEEIKRINDFLLSKWEHIRPVFPVASGGLHPGLMPELIRLFGKDLVIQAGGGVMGHPDGPRAGAKALRDAIDAAIEGVDLDEKAKSSPELKKSLREVGLSKAKVGVQH | soluble |
| MMVYIMNAFDIKSTKMDVLSISLHTSDLFDLEDVLVKLGKKFQESGVVPFVLDVQEFDYPESLDLAALVSLFSRHGMQILGLKHSNERWAAAAMKYHLLFCLSHSENVKELGQVEVQKTEDGQKARKTVLITSPVRTGQQVYAEDGDLIVTGAVSQGAELIADGNIHIYAPMRGRALAGAKGDTSARIFIHSMQAELVSVAGIYRNFEQDLPNHLHKQPVQILLQDNRLVISAIGSE | not soluble |
| MMYIDNEVLEKMIMTMVEGFNRLEKKLDRMNRLKDCLDGDTLLDNCDLAQLLGVTQRTIARYREKGLIRYYQTDENGKNFYRSSEIQDFLRHRGKKK | not soluble |
| MMYSFEANANAVKISETVSVDTGQGAKIHKFVPKNSKTYSSDLIKTVDLTHIPTGAKARINAKITASVSRAGVLAGVGKLARLGAKFSTRAVPYVGTALLAHDVYETFKEDIQARGYQYDPETDKFAKVSG | not soluble |
| MNAHEIDYRLYGDDMQFVEIELDPYESVVAEAGGMMMMDDGIVMETVFGDGSSSGKGLLGRLVGAGKRLLTGESLFMTVFTNQGSGKRRVAFAAPYPGKIIPVDLSELGGKLICQKDSFLCAAKGVSVGIEFQRKLGAGFFGGEGFIMQKLEGDGLAFLHAGGTIHRRDLQPGETLRIDTGCLVAMTKDVNYDIEYVGSIKTAFFGGEGLFLATVTGPGAVWVQSLPFSRLADRVLAAAPSAGGRSVGEGSILGGIGDWLDGDD | not soluble |
| MNAIIFCLLFTTVTATYEVFGKGIEHRNEHLIINQLDIIPVESTPTPNRASRVQKRLCGRRLILFMLATCGECDTDSSEDLSHICCIKQCDVQDIIRVCCPNSFRK | not soluble |
| MNAIILAAGFGSRLMPLTKDQPKCMVEYKNKKIIDYEIEALKSAGINEIAVVGGYLNDVLKNYLNKYDIEHFFINSKYDKTNMVHTFFCAKDFMLKCIEEKQDLIISYADIVYFQDCVQKLINAKEELAIVVDKSWCKLWSKRFANPLEDAETLKMTNGYIIELGKKANAYDEIEAQYIGLFKFSYQFLSEVIAFYEMLDRDILYDNKNFENMYMTSFLQALIEKYNNAKAVEIDGNWCEIDFMSDLEVQIEKLEHHHHHH | not soluble |
| MNAKKRKGSAVERNIVSRLRDKGFAVVRAPASGSKRKDPIPDIIALKNGVIILIEMKSRKDIEGKIYVRREQAEGIIEFARKSGGSLFLGVKKPGVLKFIPFEKLRRTETGNYVADSEIEGLDLEDLVRLVEAKISRTLDNFL | soluble |
| MNARLENLMQWLKEKNVEAAFLTSTPNVFYMTNFHCEPHERLLGMFVFQEKEPILICPKMEEGQARNAGWAHEIIGFTDTDRPWDMIAKAIKDRGINANAVAIEKELLNVERYEELTKLFPNAAFTSAEEKVRELRLIKDEKELSILREAAKMADYAVEVGVNAIKEDRSELEVLAIIEHELKTKGIHKMSFDTMVLAGANSALPHGIPGANKMKRGDFVLFDLGVIIDGYCSDITRTVAFGEISEEQTRIYNTVLAGQLQAVEACKPGVTLGAIDNAARSVIADAGYGDFFPHRLGHGLGISVHEYPDVKAGNESPLKEGMVFTIEPGIYVPNVGGVRIEDDIYITKDGSEILTKFPKELQFVK | soluble |
| MNASLSSDIAPYIPTLIQQLPIIEEIKTHLPQVLPDYSADEIHATAIASVGMYLADIDYGIRQAIAPEVTPLELRQKLSAYKIELFKRIYNIQFLQPPSTPIGGLELMQQAFKTYKRLLTTLAKAYNLRLPKGILLEHHHHHH | not soluble |
| MNAYCLTLNDTNIAIEKKDIKHLHISVCPPDGSVHVSCPLALNDESLRLSLIKRLHWIKEQQQNFLNQNRQSQRGMLERESHYLFGKRYLLKIEHTTKKHFVLQNPKYLILHVHQKTSLENRLKVLENYYRQVLREKIQTCINRYEKILNESIQSFKIQKMKRIWGSCNIAKRALLFNLELAKVPRKGIEYVVVHELLHLKTRHHNEYFRDLLSLYLPNWQRAKASLKETYLERSLEHHHHHH | not soluble |
| MNCAISGEVPEEPVVSKKSGLLYEKRLIQTHISDYGKCPVTGEPHTLDDIVPIKTGKIVKPKPLHTASIPGLLGTFQTEWDSLMLSNFALEQQLHTARQELSHALYQHDAACRVIARLKKERDESRQLLAEAERQLPAAPEVATSNAALSNGKRGIDDGEQGPNAKKMRLGISAEVITELTDCNAALSQQRKKRQIPKTLASVDALEKFTQLSSHPLHKTNKPGIFSMDILHSKDVIATGGIDTTAVLFDRPSGQILSTLTGHSKKVTSIKFVGDTDLVLTASSDKTVRIWGCSEDGNYTSRHTLKDHSAEVRAVTVHATNKYFVSASLDSTWCFYDLSSGLCLAQVTDASENDVNYTAAAFHPDGLILGTGTAQSIVKIWDVKSQANVAKFGGHNGEITSISFSENGYFLATAALDGVRLWDLRKLKNFRTFDFPDANSVEFDHSGSYLGIAASDIRVFQAASVKAEWNPIKTLPDLSGTGKATSVKFGLDSKYIAVGSMDRNLRIFGLPDDDNTEDSAQDS | soluble |
| MNDALLRALSTVNDPELHRDLVSLGMIERAELSGDVAQVKVNLTTPACPLKGQIELDVRSALLQVPGVRDVQIEFGAMVRAATQPALPGVKHVVLVGSGKGGVGKSSVAVNLAASLARDGARVGLLDADVYGPSVAHMLGQGQARVTANEDRKMRPIEAHGVRFISMANLSPAGQALVWRGPMLHSAIQQFLKDSAWGELDYLIVDLPPGTGDVQLSLTQTVQVTGAVIVTTPQDVALIDAARAIDMFRKASVPVLGVVENMSYFVAPDTGLTYDIFGRGGSRKLGEQYPLLGEIPLDVEVRKDADAGAPAILAHPESVAAQALRAVARTLAGQISVRTLSELPEQLPVLLEHHHHHH | soluble |
| MNDDKLRSLFASLATLTQQGPIPVQAYSMLAGQHSTEVLAEHMRLRWLSDGRFGPVAANILMHIHKSDPKDISLSSNVLALLLNDYRNRLSVRNDSRLMFRNCVKTLFSMYPVYVKMDECVSKCFIKPMFSSLDALIDDAPDTEDLETAGILLSENGRVLHDLNSYLVERIIVKLRHKLISEDPIVTKHVRQIFIHVYDLWAFGWSELNIPECLLTLSAEGKLSIVDQTPLRKNDISKQEFGSKESIV | not soluble |
| MNDFRPNPSLLLETSWEVCNKQGGIYTVLTSRAHEMMKRHDGRIIFIGPLLTEQEDLPTDFENTVPAILEDWHRDAAPSLDLRYVCGSWRTPGSPPVVLVDFEPLHAQKATLYYEMWEHFGIQSDKGYGDYDEASLFGIAAAQTMHSLCEYLCPEDQPAIGIFNEWMLGMGLLYSKRKTPRLKTLFLTHATTTGRSIAGNNKALYAYMPGYNGDQMAAELGVEAKHGIEKAAAHQSDTFATVSELTAKECRQLLERDPMVLPNGFEPNFVPQGEEYERRRAEARKRLLHVAEHLTGKQLPADTLLIATSGRYEYRNKGIDLFIDAASEAGRSGK | not soluble |
| MNDFTTEIVQTLVTKGDLNELFRSHLEKAINTLLRTELTAFLDYEKYDRTGFNSGNSRNGSYFRSIKTEYGELTLEIPRDRNGEFKQQTLPAYKRTNDTLETTIIHLFEKGVTMSEIADLIEKMYGHHYTPQTMSNMTKVLTEEVNAFKSRALNDKYVAIFMDATYIPLKRQTVSKEAIYIAIGIREDGTKEVLSYAIAPTESTYVWNELLQDINSRGVQEVLLFITDGLKGMKDTIHQIYPKAKYQHCCIHVSRNIAHKVRVKDRKEICDDFKAVYQANSKEEANTFLSGMIEKWKKNYPKVTQSLIENQDLLTFYDFPPSIRRTIYSTNLIESFNKQIKRYSRRKEQFQNEESLERFLVSIFDTYNQKFLNRSHKGFQQVTDTLVSMFTE | not soluble |
| MNDHSQLFRLLALLLDYPRAELREESLGLHALIRTCELPEALRDGLAALLNELCQGDLLDVQARYDGLFERGRSVSLLLFEHVHGESRDRGQAMVDLLDRYTGAGLQIDVPELPDYLPLYLEYLSLLPFAAASEGLAEVAHILGLLALRLEERGSAYAAIFEALLELGGERPDLGALRRDQAQEQRDDSLEAIDRAWEETPVSFTDPAGGCPSSSGRRPTASTEQPLQWVAQPVPQM | not soluble |
| MNDITQLRQNVLEKAHQEGQQCLKIATDSLDTDFKERQQQGLHDLKAKRQKELKALEQQFQVAQQQLKNQERQALLALKQDSIKELFEASLEKMTNFSKEEELAFLKQVLSKYPEQPLQVTFGEKTGQKFSSYDCAELRLAFPQLSYNQELIPQEAGFLVSLDQVDDNYLYRYLLESVLKEESSRIIDMLFSEI | not soluble |
| MNDKQYQEIASLLERLSRNNAMSIYGDWIKNSFSKELIASISVLTHNDLKILDSLFKQDLSISDVVSRTGLSQGGVSRRVNMMSEKGIIHKYQNDKNKKTVFLKLNPIGQELFDFHRKLHDHIKEIFFQKTQRFNEEQIRVVISFLEAILT | soluble |
| MNDMSDWKPKRFWKQAAVAETAEGYAVELDGRPVRTPAKAPLLLPTRALAEAIAAEWDAQESEVDPINMPFTRTANAAIDKVRIQQAEVADMLAAYGDSDLLCYRADSPAELVELQAQTWDPALDWAAETLGVRLRPVQGVMHQPQPASAIETLTRKVHALNPFQLAAFHDLVSLSGSLVLGFAAALNWRKADEIWQISRLDETWQEEQWGPDDEARALAAVKRAAFLHAKAAYDISTLEHHHHHH | not soluble |
| MNDNEKQLDLRIRRTHKLLWDSLFELMTQSKQKYSTITINQICDRAMVHRTTFYKHFEDKDALLTFGFKRYGKMIAEIPVSDRLSKPFQVMEQFLHHEEIGKILETQMSDEQFINRTQYLSHETRKQEIEALNQLHKNHTMPNDLIIEFYSGAITSLSAWWFKSERKVSAAEMDRYLHQLINRDIFQFEKE | not soluble |
| MNDPMGETGFSRESAPEIVFSETDMAAAEQLMHLSEEETVSCSSSTGGDCGGGGGDKIKHEYVSSRIGNELNDGVRGNSILGVEKKRKRTVMKEKKFRSLESIYKGTKEIRD | not soluble |
| MNDQYHRAARDGYLELLKEATRKELNAPDEDGMTPTLWAAYHGNLESLRLIVSRGGDPDKCDIWGNTPLHLAASNGHLHCLSFLVSFGANIWCLDNDYHTPLDMAAMKGHMECVRYLDSIAAKQSSLNPKLVGKLKDKAFREAERRIRECAKLQRRHHERMERRYRRELAERSDTLSFSSLTSSTLSRRLQHLALGSHLPYSQATLHGTARGKTKMQKKLERRKQGGEGTFKVSEDGRKSARSLSGLQLGSDVMFVRQGTYANPKEWGRAPLRDMFLSDEDSVSRATLAAEPAHSEVSTDSGHDSLFTRPGLGTMVFRRNYLSSGLHGLGREDGGLDGVGAPRGRLQSSPSLDDDSLGSANSLQDRSCGEELPWDELDLGLDEDLEPETSPLETFLASLHMEDFAALLRQEKIDLEALMLCSDLDLRSISVPLGPRKKILGAVRRRRQAMERPPALEDTEL | soluble |
| MNEETHNKKWQITHRKIQEIVFHLLKEHPIKEISVSQVCKKANINRSTFYDHFEDIYELFDVTQLNKRKELFESFIKQSNPRDKFNFYDLQSLTQFLTFIKENGWIYSIVLKSRQDFPITEGFEELYKVLINPLKKKRPELTDNELAYYFIAFQSSFTFILKRWSDNDYQEKEKEIAAILINSMPLILKNK | soluble |
